Measurements as given in patent US12570711B2, “Platforms for co-stimulation, novel car designs and other enhancements for adoptive cellular therapy” (Angeles Therapeutics, Inc., priority 2017, dated 2026).

T1: human MPL (Homo sapiens, UniProt P40238)
T1 construct: endogenous in cells; host or cells: HEL-92.1.7 (HEL) cells
T1 sequence (P40238 26-635): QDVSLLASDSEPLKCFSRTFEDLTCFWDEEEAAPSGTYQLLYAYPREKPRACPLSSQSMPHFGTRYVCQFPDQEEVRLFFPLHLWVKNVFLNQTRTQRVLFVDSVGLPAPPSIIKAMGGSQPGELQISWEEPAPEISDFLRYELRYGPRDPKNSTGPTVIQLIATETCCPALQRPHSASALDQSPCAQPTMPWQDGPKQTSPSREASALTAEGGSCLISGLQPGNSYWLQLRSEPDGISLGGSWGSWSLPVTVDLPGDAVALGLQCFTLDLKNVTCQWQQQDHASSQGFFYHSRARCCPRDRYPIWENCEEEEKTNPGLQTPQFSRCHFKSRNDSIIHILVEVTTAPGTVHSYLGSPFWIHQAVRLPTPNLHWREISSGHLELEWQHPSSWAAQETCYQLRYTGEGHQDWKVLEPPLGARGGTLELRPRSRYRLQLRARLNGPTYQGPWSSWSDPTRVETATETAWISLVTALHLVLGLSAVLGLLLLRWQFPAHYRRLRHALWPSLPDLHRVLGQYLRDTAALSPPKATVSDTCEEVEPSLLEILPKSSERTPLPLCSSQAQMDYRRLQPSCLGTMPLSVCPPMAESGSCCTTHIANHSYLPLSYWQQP


Tests used:
RAJI-Luc cells = test: NSG mice xenografted with RAJI-Luc cells, CD19-CAR T cells with FKBP-fusion modules, with or without AP20187; assay type: in vivo, mouse; conditions: AP20187 40 μg every day for 10 days intraperitoneal
Experimental: T cells expressing the CAR and these accessory modules are tested using in vitro assays in the absence and presence of the dimerizer AP20187 (100 nM). […] Half the mice in each group (n =6) are administered 40 μg of AP20187 every day for 10 days by intraperitoneal injection as described previously (Chinnery et al, J Immunol 2009; 182:2738-2744).

human MPL [1] = molecular target: T1, human MPL; test: NFAT-driven GFP expression and IL2 production of parental and TCR-deficient J-N-G cells exposed to HEL.92.1.7 cells; assay type: cell-based; conditions: MPL-specific TFP-expressing J-N-G cells with the corresponding TCR chain knocked out; HEL.92.1.7 co-culture
Text: Jurkat-NFAT-GFP (J-N-G) cells (T cell lymphoma) are infected with lentiviral vectors expressing gRNAs targeting TCRα and TCRβ1/β2 constant chains and coexpressing Streptococcus Pyogenes Cas9. The exemplary gRNA target sequences for TCRα chains are given in SEQ ID NO: 7754 and 7755. The exemplary gRNA target sequences for TCRβ1/β2 chains are given in SEQ ID NO: 7756-7758. In an alternative embodiment, the TCRα and TCRβ1/β2 constant chain loci are targeting using gRNA and TALONs as described in Knipping F et al, Molecular Therapy: Methods & Clinical Development, Vol 4, 2017. J-N-G cells lacking the expression of TCRα or TCRβ1/β2 chains are purified by cell sorting using antibodies directed against TCR/CD3 complex. […] Expression of TFPs in the cells is determined by immunostaining with Protein L staining and by staining with MPL-ECD-GGSG-NLuc-AcVS fusion protein (SEQ ID NO: 4923). J-N-G parental cells show robust TFP expression on cell surface while J-N-G cells lacking TCRα or TCRβ1/β2 chains show poor to absent TFP expression. The different populations of J-N-G cells are exposed to HEL.92.1.7 target cells for 24 hours and examined for increase in NFAT-promoter driven GFP expression and IL2 production. J-N-G parental cells expressing MPL-specific TFPs show marked increase in GFP fluorescence and IL2 secretion upon co-culture with HEL.92.1.7 cells. […]

human MPL [2] = molecular target: T1, human MPL; test: Jurkat-NFAT-EGFP (J-N-G) reporter: EGFP induction upon co-culture with HEL cells; assay type: cell-based; conditions: 4 h
Text: Jurkat cell line (clone E6-1) engineered with a NFAT-dependent EGFP (or GFP) reporter gene was a gift from Dr. Arthur Weiss at University of California San Francisco and have been described to study CAR-signaling ((Wu, C Y et al., Science 350:293-302, 2015). Jurkat cells were maintained in RPMI-1640 medium supplemented with 10% FBS, penicillin and streptomycin.
The murine monoclonal antibody 161 targets human MPL (Thrombopoietin receptor o TPO-R). To generate a CAR targeting MPL but with reduced immunogenicity, sequence of the scFV fragment comprising the antigen binding domain of the murine 161 antibody was humanized. […] Jurkat-NFAT-EGFP (J-N-G) cells were stably transduced with the lentivirus encoding the humanized MPL-hu-161-2 CAR construct. The parental and CAR-expressing Jurkats were subsequently cocultured with HEL cells and induction of EGFP expression monitored by FACS analysis after 4 h.
The murine monoclonals 175 and 111 also bind human MPL. […] The experiment is repeated as in the preceding example.
The sequence of these TFP CAR constructs is shown in SEQ ID NO: 3526 to 3533. […]
Several Ab-TCR are constructed targeting MPL based on murine 161 scFV as the antigen binding domain. […] T cells expressing MPL Ab-TCRs are shown to induce lysis of HEL-GLuc cells as measured by increase in GLuc activity. […]

Row | Molecule | TFP surface expression, GFP expression and IL2 secretion after expression of the constant chain (human MPL [1]) | further results
1 | CC[C@H](C(=O)N1CCCC[C@H]1C(=O)O[C@H](CCc1ccc(OC)c(OC)c1)c1cccc(OCC(=O)NCC(CNC(=O)COc2cccc([C@@H](CCc3ccc(OC)c(OC)c3)OC(=O)[C@@H]3CCCCN3C(=O)[C@@H](CC)c3cc(OC)c(OC)c(OC)c3)c2)CN(C)C)c1)c1cc(OC)c(OC)c(OC)c1 [AP20187] |  | expansion of CAR-T cells in vivo (RAJI-Luc cells): promote the expansion of CAR-T cells
2 | IgSP-[hTRAC-opt2]: codon optimized TCRα constant chain with signal peptide (protein) MDWIWRILFLVGAATGAHSFEGGTRFEGGLEIQNPDPAVYQLRDSKSSDKSVCLFTDFDSQTNVSQSKDSDVYITDKTVLDMRSMDFKSNSAVAWSNKSDFACANAFNNSIIPEDTFFPSPESSCDVKLVEKSFETDTNLNFQNLSVIGFRILLLKVAGFNLLMTLRLWSS | increased expression of TFP on the cell surface and induction of GFP expression and IL2 secretion | 
3 | IgSP-[hTRBC-opt2]: codon optimized TCRβ constant chain with signal peptide (protein) MDWIWRILFLVGAATGAHSFEGGTREDLKNVFPPEVAVFEPSEAEISHTQKATLVCLATGFYPDHVELSWWVNGKEVHSGVSTDPQPLKEQPALNDSRYCLSSRLRVSATFWQNPRNHFRCQVQFYGLSENDEWTQDRAKPVTQIVSAEAWGRADCGFTSESYQQGVLSATILYEILLGKATLYAVLVSALVLMAMVKRKDSRG | increased expression of TFP on the cell surface and induction of GFP expression and IL2 secretion | 
4 | MPL-hu-161-2: 2nd generation CAR (41BB, CD3z) with humanized 161 scFv hu-161-2 targeting human MPL (protein, Synthetic Polynucleotide encoding a CAR with optional accessory module(s)) MALPVTALLLPLALLLHAARPDVVMTQSPSSLSASVGDRVTITCMASEDIYIRLAWYQQKPGNAPKLLIYAATSLETGVPSRFSGSGSGTDFTLTISSLQPEDFATYYCQQYWSSPWTFGGGTKVEIKGGGGSGGGGSGGGGSQVQLQESGPGLVKPSQTLSLTCTVSGYSITSDYTWNWIRQPPGNGLEWIGYITYSGSTSYNPSLKSRVLISVDTSKNQVSLKLSSVTAADTAVYYCARLGRRYTMDYWGQGTTVTVSSTREQKLISEEDLAKPTTTPAPRPPTPAPTIASQPLSLRPEACRPAAGGAVHTRGLDFACDIYIWAPLAGTCGVLLLSLVITLYCKRGRKKLLYIFKQPFMRPVQTTQEEDGCSCRFPEEEEGGCELRVKFSRSADAPAYQQGQNQLYNELNLGRREEYDVLDKRRGRDPEMGGKPRRKNPQEGLYNELQKDKMAEAYSEIGMKGERRRGKGHDGLYQGLSTATKDTYDALHMQALPPRSSGSGEGRGSLLTCGDVEENPGPHMTEYKPTVRLATRDDVPRAVRTLAAAFADYPATRHTVDPDRHIERVTELQELFLTRVGLDIGKVWVADDGAAVAVWTTPESVEAGAVFAEIGPRMAELSGSRLAAQQQMEGLLAPHRPKEPAWFLATVGVSPDHQGKGLGSAVVLPGVEAAERAGVPAFLETSAPRNLPFYERLGFTVTADVEVPEGPRTWCMTRKPGA |  | EGFP expression (human MPL [2]): increase in EGFP expression
